Source: patent US20050009137A1 (CEDARS SINAI MEDICAL CENTER, published 2005)

Assays:
recombinant human ERα = target: T1, recombinant human ERα (human, UniProt P03372 1-595); experiment: EMSA with consensus ERE probe, recombinant human ERα and extract of IEBP transfectant; supershift with anti-hsp27 antibody
T1 construct: also called estrogen receptor alpha
T1 sequence (looked up): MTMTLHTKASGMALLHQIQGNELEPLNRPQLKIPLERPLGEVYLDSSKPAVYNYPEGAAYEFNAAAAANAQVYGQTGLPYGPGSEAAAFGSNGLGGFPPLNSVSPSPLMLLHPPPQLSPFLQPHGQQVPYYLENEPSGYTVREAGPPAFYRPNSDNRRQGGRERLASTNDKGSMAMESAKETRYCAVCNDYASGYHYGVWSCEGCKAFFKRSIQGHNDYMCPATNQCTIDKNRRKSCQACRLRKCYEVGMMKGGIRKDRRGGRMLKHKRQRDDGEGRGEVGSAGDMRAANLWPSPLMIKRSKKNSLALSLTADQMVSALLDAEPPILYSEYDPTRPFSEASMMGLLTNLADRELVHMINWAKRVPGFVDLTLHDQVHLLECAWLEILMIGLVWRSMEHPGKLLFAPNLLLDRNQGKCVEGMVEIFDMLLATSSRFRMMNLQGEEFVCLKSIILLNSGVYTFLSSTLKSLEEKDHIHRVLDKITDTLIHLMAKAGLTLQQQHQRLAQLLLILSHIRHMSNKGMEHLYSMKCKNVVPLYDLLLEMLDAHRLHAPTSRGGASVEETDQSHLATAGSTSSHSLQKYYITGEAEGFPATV

GST protein alone = target: T2, GST protein alone (UniProt P08515 1-218 = GST); experiment: GST pull-down from protein extracts of cells overexpressing IEBP, SDS-PAGE and blot with anti-hsp27 antibody
T2 construct: Control in the GST pull-down; also called GST alone
T2 sequence (P08515 whole entry): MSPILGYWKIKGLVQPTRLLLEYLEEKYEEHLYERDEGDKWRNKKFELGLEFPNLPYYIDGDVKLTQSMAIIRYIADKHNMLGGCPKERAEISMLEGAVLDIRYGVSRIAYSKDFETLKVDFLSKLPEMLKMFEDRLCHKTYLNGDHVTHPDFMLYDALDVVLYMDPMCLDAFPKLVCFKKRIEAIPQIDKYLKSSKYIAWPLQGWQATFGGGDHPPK
Procedure: Postnuclear extracts were applied to the GST beads and incubated for 1 hour. The loaded GST-extract mixture was then washed repetitively (5×) with PBS buffer containing 5 mM DTT and 1 mM PMSF and resuspended in 2×SDS sample buffer and boiled for 5 minutes. Denatured proteins were resolved on 4-20% SDS-PAGE gel, transferred to a nitrocellulose membrane, probed with appropriate antibody (obtained from Santa Cruz) and visualized by ECL.
Protein extracts of cells overexpressing IEBP were incubated with a GST-receptor ligand-binding domain fusion protein representing the ER. Control assays were employed using a glucocorticoid receptor (GR)-fusion protein or GST protein alone.

binding result (recombinant human ERα): binds
binding result (GST protein alone): no binding
B1: intracellular estradiol binding protein (IEBP) of New World primate B95-8 cells (other)
chain: MTERHVPFSLLQSPSWDPFRDWYPHSHLFDQAFGMPRLPEEWSQWFGTSSWPGYVRPLPPTTVEGPAVAAPAYSRALNQQLSSGVSETADRWRVSLDVNHFAPEELTVKTKDGVVEITGKHEERQDEHGFISRCFTRKYSLPPGVDPTQVSPSLSPEGTLTVDAPMSKPATQSNEITIPVTFESRAQLGGPEAAKSDRSAAK
notes: also called hsp27-like IEBP; hsp 27-related IEBP
